Measured values taken from article PMC12420816 (Nature Communications, 2025).

Molecular target: SARS-CoV-2 nsp16 with uncleaved His6-tag (SARS-CoV-2) (UniProt P0DTD1)
Test: native MS

SARS-CoV-2 nsp7-11 polyprotein, tag-free with native (authentic) termini (domain or fragment)
percent of signal as complex: 2%
